The text below walks through data of patent US20230133381A1.

In assay [1] the target is human DR5 (human). In words: TRAIL competitive ELISA: human DR5 coated on the plate (0.1 ug/ml), TRAIL titrated against the binding of control antibody AP, bound AP detected with anti-human Fc-HRP, ABTS, absorbance at 405 nm.
For assay [2], the target named is human DR5 (human). The assay can be described thus: SPR (BIAcore X100), human DR5 on CM5 chip, IgG injected, 1:1 Langmuir model.
In assay [3] the target is human DR5 (human). In words: ELISA: human DR5 coated on the plate (10 ng/ml), antibody titrated, anti-human Fc-HRP, TMB, absorbance at 450 nm.

As to “TRAIL protein (from UniProt P50591 114-281) (ligand)”, the IC50 (read off the curve) in the assay with human DR5 (human) [1] is 5000 pM.

B1: DA8 (antibody, V domains shown)
VH: EVQLVESGGGLVQPGGSLRLSCAASGFTFSSFNMLWVRQAPGKGLEWVAGIGKSDRYTGYGSAVKGRFTISRDDSKSTVYLQMNSLRAEDTAVYYCVRDAGSGCGSGGWTGACIDTWGQGTLVTVSS
VL: DIQMTQSPSSLSASVGDRVTITCSGGDSYAGSYYYGWYQQKPGKAPKTLIYNNNNRPSGVPSRFSGSGSGTDFTLTISSLQPEDFATYYCGSRDSSYVGIFGQGTKVEIK
Take B1: in the assay with human DR5 (human) [2], the Kd was less than 6.25 pM, the koff was less than 1e-05 s⁻¹ and the kon was 1.6e+06 M⁻¹ s⁻¹. This molecule yielded an EC50 (read off the curve) with human DR5 (human) [3] of 0.02 µg/mL.

B2: DA5 (antibody, V domains shown)
VH: EVQLVESGGGLVQPGGSLRLSCAASGFTFSSFNMLWVRQAPGKGLEWVAGIGKSDRYTGYGSAVKGRFTISRDDSKSTAYLQMNSLRAEDTAVYYCVRDAGSGCGSGGWTGACIDTWGQGTLVTVSS
VL: DIQMTQSPSSLSASVGDRVTITCSGGDSYAGSYYYGWYQQKPGKAPKTLIYNNNNRPSGVPSRFSGSTSGTDFTLTISSLQPEDFATYYCGSRDSSYVGIFGQGTKVEIK
In the assay with human DR5 (human) [2], B2 registered a Kd of less than 8.33 pM, a dissociation rate constant (koff) of less than 1e-05 s⁻¹ and a kon of 1.2e+06 M⁻¹ s⁻¹. This molecule also came in with a 50% effective concentration (EC50 (read off the curve)) with human DR5 (human) [3] of 0.03 µg/mL.

B3: DA23 (antibody, V domains shown)
VH: EVQLVESGGGLVQPGGSLRLSCAASGFTFSSFNMLWVRQAPGKGLEWVAGIGKSDRYTGYGSAVKGRFTISRDDSKSTVYLQMNSLRAEDTAVYYCVRDAGSPCGKGGWTGACIDTWGQGTLVTVSS
VL: DIQMTQSPSSLSASVGDRVTITCSGGDSYAGSYYYGWYQQKPGKAPKTLIYNNNNRPSGVPSRFSGSTSGTDFTLTISSLQPEDFATYYCGSRDSSYVGIFGQGTKVEIK
In the assay with human DR5 (human) [2], B3 yielded a Kd of 40.3 pM, a koff of 2.8e-05 s⁻¹ and a kon of 696000 M⁻¹ s⁻¹. In the assay with human DR5 (human) [3], this molecule had an EC50 (read off the curve) of 0.01 µg/mL.

B4: DA15 (antibody, V domains shown)
VH: EVQLVESGGGLVQPGGSLRLSCAASGFTFSSFNMLWVRQAPGKGLEWVAGIGKSDRYTGYGSAVKGRFTISRDTSKNTAYLQMNSLRAEDTAVYYCSRDAGSGCGSGGWTGACIDTWGQGTLVTVSS
VL: DIQMTQSPSSLSASVGDRVTITCSGGDSYAGSYYYGWYQQKPGKAPKTLIYNNNNRPSGVPSRFSGSRSGTDFTLTISSLQPEDFATYYCGSRDSDGGGRFGQGTKVEIK
In the assay with human DR5 (human) [2], B4 displayed a Kd of 1.09 pM, a koff of 2.78e-06 s⁻¹ and a kon of 2.56e+06 M⁻¹ s⁻¹. Moreover, in the assay with human DR5 (human) [3], the EC50 (read off the curve) was 0.01 µg/mL.

B5: DA18 (antibody, V domains shown)
VH: EVQLVESGGGLVQPGGSLRLSCAASGFTFSSFNMLWVRQAPGKGLEWVAGIGKSDRYTGYGSAVKGRFTISRDDSKSTVYLQMNSLRAEDTAVYYCVRDAGSGCGSGGWTGACIDTWGQGTLVTVSS
VL: DIQMTQSPSSLSASVGDRVTITCSGGDSYAGSYYYGWYQQKPGKAPKTLIYNNNNRPSGVPSRFSGSRSGTDFTLTISSLQPEDFATYYCGSRDSDGGGRFGQGTKVEIK
For B5, in the assay with human DR5 (human) [2], the Kd was determined as 27.7 pM, the koff worked out at 3.67e-05 s⁻¹ and the kon is 1.33e+06 M⁻¹ s⁻¹. The EC50 (read off the curve) with human DR5 (human) [3] was 0.03 µg/mL.

B6: DA17 (antibody, V domains shown)
VH: EVQLVESGGGLVQPGGSLRLSCAASGFTFSSFNMLWVRQAPGKGLEWVAGIGKSDRYTGYGSAVKGRFTISRDDSKSTVYLQMNSLRAEDTAVYYCVRDAGSGCGSGGWTGACIDTWGQGTLVTVSS
VL: DIQMTQSPSSLSASVGDRVTITCSGGDSYAGSYYYGWYQQKPGKAPKTLIYNNNNKAKGVPSRFSGSRSGTDFTLTISSLQPEDFATYYCGSRDSSYVGIFGQGTKVEIK
In the assay with human DR5 (human) [2], B6 came in with a Kd of 23.5 pM, a koff of 5.97e-05 s⁻¹ and a kon of 2.54e+06 M⁻¹ s⁻¹. Moreover, in the assay with human DR5 (human) [3], the EC50 (read off the curve) was 0.03 µg/mL.

B7: DA22 (antibody, V domains shown)
VH: EVQLVESGGGLVQPGGSLRLSCAASGFTFSSFNMLWVRQAPGKGLEWVAGIGKSDRYTGYGSAVKGRFTISRDDSKSTVYLQMNSLRAEDTAVYYCVRDAGSPCGSGGWTGACIDTWGQGTLVTVSS
VL: DIQMTQSPSSLSASVGDRVTITCSGGDSYAGSYYYGWYQQKPGKAPKTLIYNNNNRPSGVPSRFSGSTSGTDFTLTISSLQPEDFATYYCGSRDSSYVGIFGQGTKVEIK
In the assay with human DR5 (human) [2], B7 came in with a Kd of 34.2 pM, a koff of 3.19e-05 s⁻¹ and a kon of 932000 M⁻¹ s⁻¹. The molecule also came in with a half-maximal effective concentration (EC50 (read off the curve)) with human DR5 (human) [3] of 0.02 µg/mL.

B8: DA9 (antibody, V domains shown)
VH: EVQLVESGGGLVQPGGSLRLSCAASGFTFSSFNMLWVRQAPGKGLEWVAGIGKSDRYTGYGSAVKGRFTISRDDSKSTLYLQMNSLRAEDTAVYYCVRDAGSGCGSGGWTGACIDTWGQGTLVTVSS
VL: DIQMTQSPSSLSASVGDRVTITCSGGDSYAGSYYYGWYQQKPGKAPKTLIYNNNNRPSGVPSRFSGSRSGTDFTLTISSLQPEDFATYYCGSRDSSYVGIFGQGTKVEIK
On to B8, for which, in the assay with human DR5 (human) [2], the Kd worked out at 0.071 pM, the koff turned out to be 4e-07 s⁻¹ and the kon was 5.6e+06 M⁻¹ s⁻¹. This molecule also had an EC50 (read off the curve) with human DR5 (human) [3] of 0.02 µg/mL.

B9: D0 (antibody, V domains shown)
VH: AVTLDESGGGLQTPGGGLSLVCKGSGFTFSSFNMLWVRQAPGKGLEWVAGIGKSDRYTGYGSAVKGRATISRDDGQSTVRLQLNNLRAEDTGTYYCVKDAGSGCGSGGWTGACIDTWGHGTEVIVSS
VL: LTQPSSVSANLGGTVEITCSGGDSYAGSYYYGWYQQKAPGSAPVTVIYNNNNRPSNIPSRFSGSTSGSTATLTITGVQAEDEAVYFCGSRDSSYVGIFGAGTTLTVL
In the assay with human DR5 (human) [2], B9 returned a Kd of 15.2 pM, a koff of 2.26e-05 s⁻¹ and a kon of 1.49e+06 M⁻¹ s⁻¹. The same molecule had an EC50 (read off the curve) in the assay with human DR5 (human) [3] of 0.006 µg/mL.

B10: DA28 (antibody, V domains shown)
VH: AVTLDESGGGLQTPGGGLSLVCKGSGFTFSSFNMLWVRQAPGKGLEWVAGIGKSDRYTGYGSAVKGRATISRDDGQSTARLQLNNLRAEDTGTYYCVKDAGSGCGSGGWTGACIDTWGHGTEVIVSS
VL: LTQPSSVSANLGGTVEITCSGGDSYAGSYYYGWYQQKAPGSAPVTVIYNNNNRPSNIPSRFSGSTSGSTATLTITGVQAEDEAVYFCGSRDSSYVGIFGAGTTLTVL
In the assay with human DR5 (human) [2], B10 had a Kd of 3.89 pM, a koff of 4.52e-06 s⁻¹ and a kon of 1.16e+06 M⁻¹ s⁻¹. In the assay with human DR5 (human) [3], this molecule returned an EC50 (read off the curve) of 0.02 µg/mL.

B11: DA31 (antibody, V domains shown)
VH: AVTLDESGGGLQTPGGGLSLVCKGSGFTFSSFNMLWVRQAPGKGLEWVAGIGKSDRYTGYGSAVKGRATISRDDGQSTARLQMNSLRAEDTGTYYCVKDAGSGCGSGGWTGACIDTWGHGTEVIVSS
VL: LTQPSSVSANLGGTVEITCSGGDSYAGSYYYGWYQQKAPGSAPVTVIYNNNNRPSNIPSRFSGSTSGSTATLTITGVQAEDEATYFCGSRDSSYVGIFGAGTTLTVL
With B11, in the assay with human DR5 (human) [2], the Kd is 70.6 pM, the koff was 8.79e-05 s⁻¹ and the kon was determined as 1.24e+06 M⁻¹ s⁻¹. Moreover, the EC50 (read off the curve) with human DR5 (human) [3] came to 0.02 µg/mL.

B12: DA29 (antibody, V domains shown)
VH: AVTLDESGGGLQTPGGGLSLVCKGSGFTFSSFNMLWVRQAPGKGLEWVAGIGKSDRYTGYGSAVKGRATISRDDGQSTARLQLNNLRAEDTGTYYCVKDAGSGCGSGGWTGACIDTWGHGTEVIVSS
VL: LTQPSSVSANLGGTVEITCSGGDSYAGSYYYGWYQQKAPGSAPVTVIYNNNNRPSNIPSRFSGSTSGSTATLTITGVQAEDEATYFCGSRDSSYVGIFGAGTTLTVL
In the assay with human DR5 (human) [2], B12 came in with a Kd of 69.8 pM, a koff of 8.47e-05 s⁻¹ and a kon of 1.21e+06 M⁻¹ s⁻¹. Also, in the assay with human DR5 (human) [3], the EC50 (read off the curve) worked out at 0.01 µg/mL.

B13: DA34 (antibody, V domains shown)
VH: AVTLDESGGGLQTPGGGLSLVCKGSGFTFSSFNMLWVRQAPGKGLEWVAGIGKSDRYTGYGSAVKGRATISRDDGQSTAYLQMNSLRAEDTAVYYCVKDAGSGCGSGGWTGACIDTWGHGTEVIVSS
VL: LTQPSSVSANLGGTVEITCSGGDSYAGSYYYGWYQQKAPGSAPVTVIYNNNNRPSNIPSRFSGSTSGSTATLTITGVQAEDEATYYCGSRDSSYVGIFGAGTTLTVL
In the assay with human DR5 (human) [2], B13 came in with a Kd of 94.2 pM, a koff of 9.5e-05 s⁻¹ and a kon of 1e+06 M⁻¹ s⁻¹.

B14: DA26 (antibody, V domains shown)
VH: AVTLDESGGGLQTPGGGLSLVCKGSGFTFSSFNMLWVRQAPGKGLEWVAGIGKSDRYTGYGSAVKGRATISRDDGQSTVYLQMNSLRAEDTGTYYCVKDAGSGCGSGGWTGACIDTWGHGTEVIVSS
VL: LTQPSSVSANLGGTVEITCSGGDSYAGSYYYGWYQQKAPGSAPVTVIYNNNNRPSNIPSRFSGSTSGSTATLTITGVQAEDEATYYCGSRDSSYVGIFGAGTTLTVL
Take B14: in the assay with human DR5 (human) [2], the Kd turned out to be 1.01 pM, the koff was found to be 1.1e-06 s⁻¹ and the kon was 1.09e+06 M⁻¹ s⁻¹. The molecule further showed an EC50 (read off the curve) in the assay with human DR5 (human) [3] of 0.02 µg/mL.

B15: DA33 (antibody, V domains shown)
VH: AVTLDESGGGLQTPGGGLSLVCKGSGFTFSSFNMLWVRQAPGKGLEWVAGIGKSDRYTGYGSAVKGRATISRDDGQSTARLQLNNLRAEDTAVYYCVKDAGSGCGSGGWTGACIDTWGHGTEVIVSS
VL: LTQPSSVSANLGGTVEITCSGGDSYAGSYYYGWYQQKAPGSAPVTVIYNNNNRPSNIPSRFSGSTSGSTATLTITGVQAEDEATYFCGSRDSSYVGIFGAGTTLTVL
Take B15: in the assay with human DR5 (human) [2], the Kd stood at 78.8 pM, the koff was found to be 9.77e-05 s⁻¹ and the kon stood at 1.24e+06 M⁻¹ s⁻¹. For the same molecule, the EC50 (read off the curve) with human DR5 (human) [3] came to 0.02 µg/mL.

B16: DA30 (antibody, V domains shown)
VH: AVTLDESGGGLQTPGGGLSLVCKGSGFTFSSFNMLWVRQAPGKGLEWVAGIGKSDRYTGYGSAVKGRATISRDDGQSTAYLQMNSLRAEDTGTYYCVKDAGSGCGSGGWTGACIDTWGHGTEVIVSS
VL: LTQPSSVSANLGGTVEITCSGGDSYAGSYYYGWYQQKAPGSAPVTVIYNNNNRPSNIPSRFSGSTSGSTATLTITGVQAEDEATYYCGSRDSSYVGIFGAGTTLTVL
In the assay with human DR5 (human) [2], B16 returned a Kd of 77.4 pM, a koff of 7.97e-05 s⁻¹ and an association rate constant (kon) of 1.03e+06 M⁻¹ s⁻¹. In addition, in the assay with human DR5 (human) [3], the EC50 (read off the curve) came to 0.02 µg/mL.
